Data: the supplement of paper PMC10126150
± gives the standard deviation of the averaged measurements.

Tested on: ATP
Assay: switch fluorescence ratio, 500 uM ATP over buffer (Cy3 cluster intensity, sum of 5 cycles each) (fold (ratio)); higher = stronger signal-on switching upon ATP binding; sequences stand for … in TCGTCGGCAGCGTCAGATGTGTATAAGAGACAGTTTTTTTTTTTTTTTTTTTTTTTTT…TC
Conditions: aptamer strand: ATP DNA aptamer (quencher-CACCTGGGGGAGTATTGCGGAGGAAGG + anchor), 100 nM annealed; ATP concentration: 500 uM
In short: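 Per cluster, summed Cy3 intensity from the target cycles was divided by that from the buffer cycles to give the fluorescence ratio, then averaged per switch-domain sequence. Clusters outside 100-1000 RFU were excluded. The Cy3-labelled switching-strand clusters, on a modified Illumina MiSeq flow-cell, were annealed to 100 nM quencher-labelled ATP aptamer and imaged in selection buffer, then after 15 min with 500 uM ATP at 22 °C, for five cycles with NaOH stripping and re-annealing between them.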
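Note: ATP exposure 15 min at 22 °C before imaging.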

Row | Sequence | switch fluorescence ratio
1 | TTCGCTGGGT | 0.995 ± 0.017
2 | TTGCAAATCG | 1.11 ± 0.18
3 | CAGGGGTTGA | 0.987 ± 0.035
4 | CGTAGGAATT | 1.07 ± 0.015
5 | ATCTATTGGG | 0.991 ± 0.0066
6 | ACCGGTTGCC | 0.974 ± 0.058
7 | TTTGGGGGCG | 0.983 ± 0.081
8 | TTATGAGGGG | 1.009 ± 0.0077
9 | ACTGGTTTAG | 0.9975 ± 0.0095
10 | GAGGGGTTTT | 1.01 ± 0.04
11 | GCAAAAAATT | 1.01 ± 0.025
12 | GGGGCGGGAT | 1.01 ± 0.02
13 | CGGAGTCGCC | 1.01 ± 0.012
14 | TTCAGGGAGA | 1.005 ± 0.008
15 | GGGTTAAGTC | 0.983 ± 0.028
16 | CTGGCAGGGC | 1.07 ± 0.016
17 | GTGGGAAAG | 0.983 ± 0.016
18 | AAATTGGACA | 1.04 ± 0.049
19 | CCGTTTGGGA | 0.998 ± 0.032
20 | AATTTGGGTC | 0.981 ± 0.016
21 | AAGGGATATG | 1 ± 0.013
22 | TAAAAAATAC | 1.67 ± 0.74
23 | TGTGGGGAAA | 0.993 ± 0.03
24 | GCTGAATTGG | 1.04 ± 0.053
25 | GATGTGGTGT | 0.984 ± 0.081

Row | Sequence | switch fluorescence ratio
26 | GGGCCATGTA | 1 ± 0.034
27 | ATTCAGGGGG | 1.07 ± 0.028
28 | AGATGGTGGG | 1 ± 0.025
29 | TTTATAATCA | 0.967 ± 0.011
30 | GAAGGGGGAG | 0.996 ± 0.028
31 | CACCAATAGC | 1.31 ± 0.059
32 | TATGGGATGT | 0.988 ± 0.016
33 | TTGGGGTCCG | 0.977 ± 0.053
34 | CGAATGGTCG | 1.041 ± 0.0095
35 | GTGGCAAAAG | 1.02 ± 0.033
36 | TACGTATTTA | 1.13 ± 0.0012
37 | TTTATGAGCC | 1.01 ± 0.062
38 | CGCCTAAGGG | 0.993 ± 0.037
39 | TGAAGTTGTA | 0.965 ± 0.035
40 | CATTGTGCCT | 1.04 ± 0.018
41 | GATGGTAATT | 1 ± 0.025
42 | TGATGAATGG | 0.9899 ± 0.0092
43 | GACGGTTCGT | 1.01 ± 0.022
44 | GTCGTTCTGA | 0.99257 ± 0.00085
45 | CAACCGGGAA | 1.1 ± 0.021
46 | CCATTGCACG | 1.16 ± 0.12
47 | CATGATAAT | 0.998 ± 0.022
48 | GCACGCGGGG | 1.009 ± 0.0015
49 | ATGTGAAAGG | 1.02 ± 0.018
50 | AGCCGTATGA | 1.013 ± 0.0087

Row | Sequence | switch fluorescence ratio
51 | CTCCTGGCCA | 1.13 ± 0.014
52 | ATGTGCATGT | 0.986 ± 0.024
53 | CGGTTTCCGC | 1.04 ± 0.022
54 | TTGATATGGA | 0.98 ± 0.022
55 | CGTGTGGTAT | 1.01 ± 0.042
56 | TGCTGGCGCG | 1 ± 0.033
57 | GAGCAACTGA | 1.022 ± 0.0018
58 | GGGTTATACG | 1.04 ± 0.031
59 | GGGAGAAAAT | 1.02 ± 0.011
60 | GGTGTTTGTA | 1.005 ± 0.0094
61 | ATTCGTTTCT | 0.97 ± 0.013
62 | CGTTGGTGTC | 0.9921 ± 0.0085
63 | TTCAGCTCTA | 0.993 ± 0.028
64 | TCAAGGGTTA | 1.02 ± 0.011
65 | AGTTTGCTTT | 0.995 ± 0.035
66 | AAATCATTAA | 1.02 ± 0.018
67 | TTGGACGGGT | 1.022 ± 0.008
68 | AAAAGTGTCG | 1.06 ± 0.056
69 | TACCGTAAAC | 1.8 ± 0.7
70 | TATTTGTAGG | 1.05 ± 0.045
71 | GACTATTGTT | 1 ± 0.015
72 | TTTTCAGTTG | 1.002 ± 0.0029
73 | TAGGGAAATC | 0.983 ± 0.013
74 | ATTTAAGGAC | 1.04 ± 0.032
75 | GGAGGACTTT | 0.9826 ± 0.0028

Row | Sequence | switch fluorescence ratio
76 | AAGGGAACGG | 0.971 ± 0.022
77 | GTGGCAGGAA | 0.964 ± 0.068
78 | GATGAAGCCT | 1.17 ± 0.035
79 | TAGACCAAAA | 1.02 ± 0.017
80 | GAACTATTCA | 0.9848 ± 0.0054
81 | AACACGTATA | 1.227 ± 0.0097
82 | TATTTCGTTG | 0.998 ± 0.059
83 | ACTTCTGGCT | 0.9717 ± 0.0054
84 | GACGCTCAGC | 1.39 ± 0.019
85 | CTGGGGGGTC | 1.24 ± 0.41
86 | ATTTGTATGC | 1 ± 0.051
87 | TCCATGTTGA | 1.03 ± 0.019
88 | CCATTAGCAT | 2.12 ± 0.2
89 | GCTGACATTC | 0.992 ± 0.04
90 | CAGGGACATT | 1.08 ± 0.067
91 | GGATAGAGTA | 1.01 ± 0.0075
92 | GGCTCAATTT | 0.967 ± 0.012
93 | TAGGGGCACA | 1.01 ± 0.033
94 | CAGCGTGGCA | 1 ± 0.021
95 | GTAATTTTGA | 1.01 ± 0.057
96 | TTCAAAAGGG | 1.05 ± 0.052
97 | CTCGCGGGTG | 1.14 ± 0.11
98 | GTTTTGAACA | 0.983 ± 0.034
99 | AAAAAAGAAA | 0.982 ± 0.015
100 | TGTAAGGAAA | 1.03 ± 0.013

Row | Sequence | switch fluorescence ratio
101 | CGGTTCTGTA | 1.01 ± 0.027
102 | TTTCGTAAAA | 1.002 ± 0.0057
103 | GTTACGAGTT | 0.977 ± 0.012
104 | TGCGCAACTT | 1.0306 ± 0.001
105 | TAAAACCGGT | 1.02 ± 0.018
106 | GTTTGGAGGC | 1.01 ± 0.016
107 | CAGCTGGGGA | 1.01 ± 0.055
108 | GCTTCCTAAG | 1.139 ± 0.0072
109 | TTTGTACGCA | 1.71 ± 1
110 | TTCAATATTT | 1 ± 0.024
111 | AGGTTTTTGG | 0.963 ± 0.012
112 | AATTTAAGGC | 0.985 ± 0.078
113 | ATTATGGAGG | 0.968 ± 0.016
114 | AAAGTTACGT | 1.01 ± 0.044
115 | AAGTCAGTTG | 1.02 ± 0.059
116 | TTATCTAATC | 0.972 ± 0.008
117 | TGTTAATAAG | 0.9618 ± 0.0071
118 | TCCTTTGTGG | 1.02 ± 0.021
119 | GAAATTAGGA | 1.01 ± 0.028
120 | TTTGAGCTTG | 0.981 ± 0.017
121 | TGAATAGAGG | 1.012 ± 0.0024
122 | GAACGTTATT | 1.2 ± 0.23
123 | AAAGAAGACG | 1.0319 ± 0.00064
124 | TCGCTCGCAT | 3.68 ± 0.73
125 | TTTGTAAGGT | 1.032 ± 0.0089

Row | Sequence | switch fluorescence ratio
126 | TCAGAGGATC | 0.961 ± 0.017
127 | TTTTACTGAT | 1.02 ± 0.026
128 | GAGGTTTTTA | 0.986 ± 0.027
129 | GGGATGTTTT | 0.991 ± 0.012
130 | TGTTGGTAGG | 0.964 ± 0.03
131 | TTCCGGGGCG | 0.991 ± 0.038
132 | GGGCCTATAG | 0.9859 ± 0.0085
133 | TATGTTAGGA | 1.0104 ± 0.00038
134 | TTTTTGAT | 0.972 ± 0.022
135 | AGTTGTTTTG | 0.998 ± 0.015
136 | ACCTCACTTT | 1.303 ± 0.005
137 | AAGGGTGCTC | 1.03 ± 0.047
138 | ATAATTTGAC | 1.04 ± 0.058
139 | ATCGGAAGCG | 1.03 ± 0.011
140 | TAAGTTTGTT | 0.997 ± 0.011
141 | TTTCGGAAAA | 1.24 ± 0.41
142 | TTGAGTTTGA | 0.994 ± 0.011
143 | CCAGGTCATA | 1.07 ± 0.011
144 | TCAAAAAAAT | 1.02 ± 0.091
145 | CTGTATAACG | 0.998 ± 0.031
146 | CCGCGACGGG | 1.69 ± 0.48
147 | GCGGCCTTTC | 1.2 ± 0.23
148 | TGAAATTTAT | 1.01 ± 0.032
149 | TAAAAGGTTT | 1 ± 0.032
150 | TTACAAGACG | 1.032 ± 0.0049

Row | Sequence | switch fluorescence ratio
151 | TTGGGTTTGG | 0.986 ± 0.015
152 | CAGAGTGTGG | 0.955 ± 0.026
153 | CTGGTTCACC | 0.99 ± 0.013
154 | AAGAGGTCAG | 1.033 ± 0.0016
155 | AAAAGGAGGA | 1.02 ± 0.043
156 | TTCAGATGGG | 0.972 ± 0.01
157 | ATCTTCAACT | 1.052 ± 0.01
158 | GGAATGGGCG | 1.02 ± 0.042
159 | CGTAATTGCC | 1.002 ± 0.008
160 | TGGTCTTCTC | 1.16 ± 0.26
161 | GTCGGGGTTG | 0.971 ± 0.014
162 | TGGGGGCGGT | 0.996 ± 0.028
163 | CGATGGGGTA | 1.01 ± 0.044
164 | GAAATACGGT | 1.19 ± 0.17
165 | GCTATGGGGA | 1.02 ± 0.02
166 | GGGAAAGGCA | 1.015 ± 0.0076
167 | GGGAAGCATG | 1.02 ± 0.022
168 | ACTAATAAGG | 1.04 ± 0.029
169 | TAGCGGTTGG | 1.022 ± 0.0053
170 | TTGTTGGTGA | 0.971 ± 0.033
171 | GTGGATGGGG | 1.05 ± 0.13
172 | ACGGTTGAGC | 1 ± 0.021
173 | CGGGGGGGC | 1.001 ± 0.01
174 | CAGTTAGGGG | 1.02 ± 0.013
175 | GGCCTCGACC | 1.03 ± 0.0086

Row | Sequence | switch fluorescence ratio
176 | TTATTACTTA | 0.984 ± 0.017
177 | TGTTTTCGCT | 0.9969 ± 0.0097
178 | AAGCCGATCT | 0.974 ± 0.046
179 | GTAAGGGATG | 1.01 ± 0.016
180 | TACAGGTATC | 0.9796 ± 0.0048
181 | TTAATTGGCC | 0.992 ± 0.055
182 | GTCGGCGGGG | 0.98048 ± 0.0006
183 | CGTAGCGGTA | 1.53 ± 0.098
184 | GCCTGATGCG | 0.997 ± 0.055
185 | TTAGGGCCGC | 0.966 ± 0.014
186 | ACGATGAAGG | 1.01 ± 0.021
187 | ATCTATTGTG | 0.974 ± 0.013
188 | GGGGGACTTG | 0.997 ± 0.021
189 | AAAAAATTTT | 1.01 ± 0.023
190 | AGTCATTATG | 1 ± 0.036
191 | ACGCCGTATG | 1 ± 0.011
192 | TCGAGAGATA | 1 ± 0.054
193 | CGGGGAGCGT | 1 ± 0.034
194 | CAGGGGTATC | 1.01 ± 0.033
195 | GGTACTGGGA | 0.997 ± 0.0025
196 | AACGGGAAGA | 1.02 ± 0.028
197 | GCATGGGCTG | 1.04 ± 0.019
198 | AATTTTTCGT | 1 ± 0.027
199 | CGATTTTTTG | 1 ± 0.019
200 | TGAGAAGCAA | 1.34 ± 0.056
